In the supplement of paper PMC6757056:
± gives the standard deviation of the averaged measurements.

B1: library; a variant is named by its letters at N, in order (parent)
chain: GCUGUCACCGAGAAACUGUGAAGUAUAUCUUAAACCUGGGCACUUAAAAGAUAUAUGGAGUUAGUAGUGCAACCUGCUCGGUCUGAUGAGUCCNNNNNNGGACGAAACAGC

Columns and labels:
cyclic di-GMP [1] = variants of: B1; assay: FACS-Seq fitted mean relative fluorescence mCherry/BFP without ligand (log10 relative fluorescence); HEK293T; ligand: cyclic di-GMP (c-di-GMP-II aptamer); higher = higher reporter protein expression; settings: ligand present: no
In short: (§1)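 Fluorescence values are fitted normal means of bin counts along the mCherry/BFP axis. HEK293T libraries lentivirally carrying the ribozyme switch in an mCherry reporter, with an EF1α-BFP marker, were enriched, exposed to ligand or not for 48 h, and sorted into 6 bins. Genomic DNA per bin was PCR-amplified, barcoded and run on MiSeq. Means of log10(mCherry/BFP) were scaled to five spiked-in control ribozymes.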

cyclic di-GMP [2] = variants of: B1; assay: normalized RNA/DNA level without ligand (relative to sTRSVctl = 100) (log10 (% of sTRSVctl)); HEK293T; ligand: cyclic di-GMP (c-di-GMP-II aptamer); higher = less ribozyme self-cleavage, higher mRNA level; settings: reporter: mCherry (pCS4076), ligand present: no
Method: (§2)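 Hammerhead (sTRSV) ribozyme switch libraries with a ligand aptamer grafted on stem I and a randomized N4-6 loop II, cloned into the 3' UTR of mCherry and transiently transfected into HEK293T cells; RNA-Seq 72 h post transfection with ligand added 1 h before transfection; RNA read count / plasmid DNA read count normalized to the non-cleaving sTRSVctl (x100), log10; sequences with >100 DNA reads. FACS-Seq: lentiviral library sorted into 6 bins after 48 h ligand, log-normal fit mean of mCherry/BFP scaled to controls. Printed sequences are partial switch sequences.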

cyclic di-GMP [3] = variants of: B1; assay: FACS-Seq fitted mean relative fluorescence mCherry/BFP with ligand (log10 relative fluorescence); HEK293T; ligand: cyclic di-GMP (c-di-GMP-II aptamer); ligand concentration (+) FACS-Seq: 1 mM; higher = higher reporter protein expression; settings: ligand present: yes
In short: as §1

cyclic di-GMP [4] = variants of: B1; assay: normalized RNA/DNA level with ligand (relative to sTRSVctl = 100) (log10 (% of sTRSVctl)); HEK293T; ligand: cyclic di-GMP (c-di-GMP-II aptamer); ligand concentration (+) RNA-Seq: 1 mM; higher = less ribozyme self-cleavage, higher mRNA level; settings: reporter: mCherry (pCS4076), ligand present: yes
Method: as §2

Row | Variant | FACS-Seq fitted mean (log10) (cyclic di-GMP [1]) | normalized RNA/DNA level without ligand (log10) (cyclic di-GMP [2]) | FACS-Seq fitted mean (log10) (cyclic di-GMP [3]) | normalized RNA/DNA level with ligand (log10) (cyclic di-GMP [4])
1 | GCUGUCACCGAGAAACUGUGAAGUAUAUCUUAAACCUGGGCACUUAAAAGAUAUAUGGAGUUAGUAGUGCAACCUGCUCGGUCUGAUGAGUCCACCAAGGGACGAAACAGC [ACCAAG] | -0.4336 ± 0.0033 | 1.54 ± 0.1 | -0.172 ± 0.048 | 1.71 ± 0.09
2 | GCUGUCACCGAGAAACUGUGAAGUAUAUCUUAAACCUGGGCACUUAAAAGAUAUAUGGAGUUAGUAGUGCAACCUGCUCGGUCUGAUGAGUCCUCGAUAGGACGAAACAGC [UCGAUA] | -0.515 ± 0.044 | 1.35 ± 0.17 | -0.119 ± 0.11 | 1.51 ± 0.084
3 | GCUGUCACCGAGAAACUGUGAAGUAUAUCUUAAACCUGGGCACUUAAAAGAUAUAUGGAGUUAGUAGUGCAACCUGCUCGGUCUGAUGAGUCCGAUUUAGGACGAAACAGC [GAUUUA] | -0.361 ± 0.0081 | 1.65 ± 0.018 | -0.0961 ± 0.03 | 1.81 ± 0.11
4 | GCUGUCACCGAGAAACUGUGAAGUAUAUCUUAAACCUGGGCACUUAAAAGAUAUAUGGAGUUAGUAGUGCAACCUGCUCGGUCUGAUGAGUCCCUGAAAGGACGAAACAGC [CUGAAA] | -0.638 ± 0.031 | 1.28 ± 0.097 | -0.374 ± 0.059 | 1.43 ± 0.12
5 | GCUGUCACCGAGAAACUGUGAAGUAUAUCUUAAACCUGGGCACUUAAAAGAUAUAUGGAGUUAGUAGUGCAACCUGCUCGGUCUGAUGAGUCCACGUGUGGACGAAACAGC [ACGUGU] | -0.475 ± 0.012 | 1.45 ± 0.097 | -0.096 ± 0.051 | 1.69 ± 0.078
6 | GCUGUCACCGAGAAACUGUGAAGUAUAUCUUAAACCUGGGCACUUAAAAGAUAUAUGGAGUUAGUAGUGCAACCUGCUCGGUCUGAUGAGUCCCGUGAAGGACGAAACAGC [CGUGAA] | -0.546 ± 0.02 | 1.24 ± 0.057 | -0.396 ± 0.0075 | 1.35 ± 0.099
7 | GCUGUCACCGAGAAACUGUGAAGUAUAUCUUAAACCUGGGCACUUAAAAGAUAUAUGGAGUUAGUAGUGCAACCUGCUCGGUCUGAUGAGUCCAUGGUAGGACGAAACAGC [AUGGUA] | -0.519 ± 0.1 | 1.46 ± 0.066 | -0.143 ± 0.024 | 1.65 ± 0.098
8 | GCUGUCACCGAGAAACUGUGAAGUAUAUCUUAAACCUGGGCACUUAAAAGAUAUAUGGAGUUAGUAGUGCAACCUGCUCGGUCUGAUGAGUCCAAAGCUGGACGAAACAGC [AAAGCU] | -0.569 ± 0.092 | 1.63 ± 0.063 | -0.245 ± 0.025 | 1.78 ± 0.099
9 | GCUGUCACCGAGAAACUGUGAAGUAUAUCUUAAACCUGGGCACUUAAAAGAUAUAUGGAGUUAGUAGUGCAACCUGCUCGGUCUGAUGAGUCCGCAAAUGGACGAAACAGC [GCAAAU] | -0.773 ± 0.072 | 1.39 ± 0.071 | -0.484 ± 0.094 | 1.61 ± 0.12
10 | GCUGUCACCGAGAAACUGUGAAGUAUAUCUUAAACCUGGGCACUUAAAAGAUAUAUGGAGUUAGUAGUGCAACCUGCUCGGUCUGAUGAGUCCCGCCUUGGACGAAACAGC [CGCCUU] | -0.439 ± 0.021 | 1.5321 ± 0.00037 | -0.126 ± 0.059 | 1.72 ± 0.13
11 | GCUGUCACCGAGAAACUGUGAAGUAUAUCUUAAACCUGGGCACUUAAAAGAUAUAUGGAGUUAGUAGUGCAACCUGCUCGGUCUGAUGAGUCCACGCAGGGACGAAACAGC [ACGCAG] | -0.51 ± 0.13 | 1.677 ± 0.0051 | -0.377 ± 0.0065 | 1.81 ± 0.094
12 | GCUGUCACCGAGAAACUGUGAAGUAUAUCUUAAACCUGGGCACUUAAAAGAUAUAUGGAGUUAGUAGUGCAACCUGCUCGGUCUGAUGAGUCCUCGAGAGGACGAAACAGC [UCGAGA] | -0.546 ± 0.018 | 1.47 ± 0.0053 | -0.217 ± 0.11 | 1.71 ± 0.16
13 | GCUGUCACCGAGAAACUGUGAAGUAUAUCUUAAACCUGGGCACUUAAAAGAUAUAUGGAGUUAGUAGUGCAACCUGCUCGGUCUGAUGAGUCCGUGGUAGGACGAAACAGC [GUGGUA] | -0.522 ± 0.03 | 1.58 ± 0.059 | -0.23 ± 0.015 | 1.72 ± 0.08
